The source of these data is article PMC5751283, “A Split-Luciferase Reporter Recognizing GFP and mCherry Tags to Facilitate Studies of Protein–Protein Interactions” (International Journal of Molecular Sciences, 2017).

This data set deals with the molecule itself. Briefly: split reporter (BiFC, NanoBiT); GFP- and/or mCherry-tagged targets expressed in Leishmania tarentolae extract (pairs co-expressed, self-associating proteins alone), serially diluted three-fold, mixed 1:1:1 with two split-nanoLuc fusions of anti-GFP or anti-mCherry nanobodies (SLN pairs GL/GS, LC/GS, CL/CS or LC/CFRS, also made in LTE); 10 min at 23 °C; buffer A (25 mM HEPES pH 7.4, 50 mM NaCl); background: ….

B1: mCherry–SOX9 (natural protein, UniProt P48436 1-509, looked up)
chain: MNLLDPFMKMTDEQEKGLSGAPSPTMSEDSAGSPCPSGSGSDTENTRPQENTFPKGEPDLKKESEEDKFPVCIREAVSQVLKGYDWTLVPMPVRVNGSSKNKPHVKRPMNAFMVWAQAARRKLADQYPHLHNAELSKTLGKLWRLLNESEKRPFVEEAERLRVQHKKDHPDYKYQPRRRKSVKNGQAEAEEATEQTHISPNAIFKALQADSPHSSSGMSEVHSPGEHSGQSQGPPTPPTTPKTDVQPGKADLKREGRPLPEGGRQPPIDFRDVDIGELSSDVISNIETFDVNEFDQYLPPNGHPGVPATHGQVTYTGSYGISSTAATPASAGHVWMSKQQAPPPPPQQPPQAPPAPQAPPQPQAAPPQQPAAPPQQPQAHTLTTLSSEPGQSQRTHIKTEQLSPSHYSEQQQHSPQQIAYSPFNLPHYSPSYPPITRSQYDYTDHQNSSSYYSHAAGQGTGLYSTFTYMNPAQRPMYTPIADTSGVPSIPQTHSPQHWEQPVYTQLTRP
notes: SOX9; also called SOX9–mCherry; mCherry homodimer; source: Leishmania tarentolae cell-free extract (LTE), not purified
In the case of B1, the signal-to-background ratio came out at 5.
